# Assay results reported in the NTF2 design screens of Basanta et al. (2020).
# Test: protease stability score; higher = more stable; yeast display proteolysis, trypsin and chymotrypsin;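 also: relative to predicted unfolded state with 0 unfolded-like and 1 meaning tenfold more protease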
row,Sequence,protease stability score
1,DEHHERARKVAHLFMRIFETGDEDSMNELLDPNVRWVLIYGDKRFELHGWEELDKDIRRYDHHRLEMKHVEIQGNKADNDTRLRLRFDGKDIETETRLHIRVVDGVMKEVTFDIH,0.364
2,DEHHETLKRMTDQTLHVIHTGDEETWNQLADPNTLIRIIFENREINIHGWHLVVRWLQHLHRELRIEIDIRDIEIQGNKVHVEGELHVHQGEKEINIRIIFHFIVVNGRLRDVTIDFR,1.3
3,DEHHEVAHRISTMLTHILMTGNEEWLSHLADPRVRSEIGDFEIHGREHMEELLHRILNKLGADHLRIHHIEIRIQGDFLIVKVHGRTHIGDKTVTHEIIFIIIKINGRWHLHSIWFDFE,1
4,DEHHEVSEKVAKLFLEIWETGDWKTLKRLADPRVRTHIIIGDKTINEHGRENYIRSTVEFLERFPNMRYEIREVRVIGDKIETQGEMNVNGKTFDVIIELIIIDGRIKEVRVENR,1.08
5,DEHHKHLHHLAEHTLRLIATGDEDRFSDLADPHTRLRVNGVDVIGRELVIELWKRMLEQIRITDVHVKRSVVIDGVVHQDTELHSTVGDKRFELKTKSHIFIINGRIHMVEIQHE,-0.28
6,DEHHKHVKEMLDLWRRNMETGDWDEIHKLADPHVRMIIFVGDKEIHSHGREEVHRVLEEWIRRMGVDHLVLHDVTLQGNKIIIDTQRNFDGRYLDTSEIIIVVNGRIKEVTFEEK,0.341
7,DEHHKILTELMRDALRYEETGDWDETSKLLDPRTRLDFNGVEVIGREAYEHLLRFLGIKVFRETDMEVQGDKIKLNGRSNFNGRETEHYIYALKVDGRWILRSVEFK,1.3
8,DEHHRLARDFWKMLADILKTGDEEIFRDLADPDTRMIQGDKLYHGRELISRELVRQVKEWRLHDFELHHIDEVNGRLLVDSRLVGHFDGRHYLMHVRIFMHKVDGRWVLHEMHYE,1.38
9,DEHHRWLEQALHLWIHTILTGDEKVLHELFDPDVRLNVDGQDFHGRELMIKWFHDILRKFKNIRIKHIHIEDRRYYDGRLEIHTSVNVEFNGRPHEEKYRIIAFKIDGRWRLKEEEFH,1.8
10,DEHKDLAHKAITNFIEWTETGDFEMFLKLFDPNMRLRVDGQHHHGWHDVFRVFREMGYEIKSVKMDDVEIQGEKITVDLRVHVDINGQHEDIKTRYFFSKYDGKWIIEQIQVV,-0.276
11,DEHKEEFREWVERLEHVLKTGNEDELHELADPDVKVRIGDKEIHGMHEVLRFILEFYKKLGIDHRHLRIDDYRVQGDFLHIDGHLELTFNGRKHTHQLHIVVLKVNGRWILKEIRVS,2.25
12,DEHKEEIKKFIEEWERSMITGDEDRLWELADPNTRLRQGEFEIHGMEILIEAEHRIVEKYKGLTIESIEMKHIDIINGVVVLYSKIRVRQGDKETEIFIIIYIIKINGQWRLHSLEIR,1.34
13,DEHKEILREYAKKFLNDVMTGDEDEIEHLADPHARVEIGDKDIHGWEQWIKHLSRTWKELRIEDYRIRSIELVNGVVHLDTHLHIRIGDKRFDTQVEIHLVVINGKVKSVRVDIR,1.12
14,DEHKELHERLLKMWLSIWETGDEERLRRNADPDTRFKHDFNGREETVVGRENVAKVLEDLRRELGIDHVHIRHFDVQGNYVDLTTELHFNGRIVNFHIIIRVVNGKLKEIHFELR,1.26
15,DEHKEQLRRIFELMLHLFLTGDWKQLWELADPHARFRIDGRDIHGRDNFAEEVKRIVDEWRIHIDPRHIDVFDGVNHVRTDLFFEYDGRKLRHHTRVINIVVDGRLKEVEFRIE,1.36
16,DEHKESLKRAFELWVETVKTGDEQRTEELIDPHVRVVIGDKEIHGMKETSRHILEMRVKSFRLRHYHFVNGRVNILGEIDGEFDGRRRDVDITIHIQKFNGRWLIDELHFG,2.27
17,DEHKHIAEEIARIVLENWMTGNEEIFKKMADPHVRVHINGKKSHGRDHYHELWRLLFEHIRIEHLHIRHMDKQGDFVRVEVEVTGHIDGRRETVESEFRIRTVNGVLRDVEIHFH,1.2
18,DEHKKESKETAEIVMELRKTGDWDEFSRLADPNVKIDVDVNGKRINNIGWESFVEFVLKERDEWRLEDYKIRDIRVIDGVAEIDGEITGVFNGQREKREFRIIVVVVNGRLKSVQLKFK,1.29

row,Sequence,protease stability score
1,DEHKREMRILLQLWREFWLTGDWRNILKNADPDYRLTVNGRDFVGMELATEFLEIILRHLRVKHIILRHEELVDGVLHVEGEIDGNIDGKETIHENEINMFVYNGKIHEVELHLK,1.36
2,DEHLEYVREIARLFWQLLSTGDEENLRKLFDPNARLDVNGQEFHGREEIIIFLRHWRMRSKDIRIHHVNVQGEKMEVDIHTDLEFEVGDFKYEEHTRVEIIVEKINGRWLVRHVKIR,0.437
3,DEHNKLAILIVEILWHLWETGNEEELVKLADPNYKHDVNGKISVGREEFEKTTHYLLNHLRFKHRHVRDEKVQGNKFHVDGQLNIDVNGREVRFDLRVVYIIVNGRLRSEHIDIV,1.71
4,DEHQEEIKEMFRRMIHALETGDEDFFNHLADPHVLFHEHFNGRSFELHGREEFSKWLQSHREEIRLRNVHYHDIRIYNGVVHFDGRIVWHQGDKTIDRKVHWRTFVIDGRAKKVEIHVK,0.621
5,DEHQERIEEVLRDILEVLETGDWRKWHRLMDPHVLLIIFINGRKLSFHGMETVISHLQHEWRRVKGLQFELKHVELQGDYIHIDGHVRFNGQQTRIEIRIDIVDGKIHQLEFKFD,1.53
6,DEHQERNRRALEEMNRILDTGDWEELTELADPHVRIHYGEFNLHGREDAHRFWKHIVERFKGIRVNIHDVKMVGNYVDVDGHLEIGDKEHKVRIIAFKINGRWLLHSMHFV,1.38
7,DEHQKEIKEVVEMMRHAILTGDEETLERQMDPHAKIRINGVDYVGRRYLEILIRRVDHRRIHTRIRHVEIVDGRVITHLEERTVLHVGDKDIHVSHELEFVLLKIDGRWLVTEMIIQ,1.23
8,DEHQRMLELFMRLLMHSQETGDEKTLRELADPNARIHVGDKDYVGREHAAKLLVEWRIHDLELRTVDVQGDKIQWEGELEGEYNGKQDRYETYIIVTKIDGRWLEERVIFK,1.3
9,DEHREFAKHVLEALVRALETGDEDTIRELFDPNYRIEIGDKTVIGRKYWELFIRRVDHIEVHIIIRDFDVQGNKVIIRGDSHIHLNYDGRTLDIQHHVNFVIRKVDGKWVFHSEHFI,1.79
10,DEHREIARRHTEVWWKLLLTGDEHLLRELADPHVRLETEHEEVHGREEVVRFLTEEIMKVKNIRLELKRIEVQGDKIDVEGTRHIDGVTIRVILYIHKINGRWVVQQIQLD,1.29
11,DEHRELEERMHELIQKANETGDWERWMELADPHTRLIVGDKEFHGMERSYEHILELFRRLGVERVEVRIERRDEQGEKINLDVIIIIGDKTIRLILIIYKVDGRWLLRSVEIR,1.63
12,DEHRELIKEMLERFERSLRTGDEHIQTEMMDPDAKIDINGVELHGRDWASRYIQKYKNVRIEVRTITIQGDKVDIHSTIIIGDKHHSMIIHARKVDGKWVLEEMWVE,0.613
13,DEHRESLETALEIEIETMLTGDEDSFKRLADPHYRLDVNGVKYHGREAVRVYLEQFDYVEHIVSKDVLVQGDKVRWDVQLDGKYNGQRRRVRVDIISRKINGRWILEEIRIK,0.748
14,DEHRKHAEDIFRLWLKAVKTGDEEHILDLMDPHVRLIILVGDKEIHLHGREEMKKENERLRHEWGVDRIRLEITRLDVQGDKIHSDGIDIFNGRNFRVKHHMKVVNGRVEEIKIEFE,0.462
15,DEHRKLIEELAEKLIEALWTGDERRIRELADPNVRMDYGEFKIHGRDLMVETLKHEMKKFKNVRLINHHVTVQGEFINIDMEVRFDGVSHRVEHNWDVVNGVVKEVRIEKN,1.09
16,DEHRRELKEAIEMMLTALYTGDEKILLELIDPNTRLDVNGRELHGRDDWVEETRRIKNLKFHVHHIDVQGEKIHVDGLVIFNGRERRVHYNAEKYDGRWILTHINVR,1.22
17,DEHTDAVETTWKRLLEDERTGNEDSLERLADPNYRVIINGKHYHGMEHSLHILSEWRITDHEIKDVEIQGEKAHIDGRFNGIIDGKHLNIHVLILIEKVDGRWIIKSVIFK,-0.096
18,DEHTDMTRRLAELFRHLIETGNWKELTKLADPNMRLEVGDKEMHGREKLAELWRRIKNVRISIRRVEVQGEKVHLDLELDVDGQRQKFSEHIDIVDGVMRDVNVQWE,2.12
